Measured values: patent US6881402

Molecular target: human Fas (human) (UniProt P25445)
Test: cell-based or functional assay

UniProt P25445, sequence (P25445 26-335): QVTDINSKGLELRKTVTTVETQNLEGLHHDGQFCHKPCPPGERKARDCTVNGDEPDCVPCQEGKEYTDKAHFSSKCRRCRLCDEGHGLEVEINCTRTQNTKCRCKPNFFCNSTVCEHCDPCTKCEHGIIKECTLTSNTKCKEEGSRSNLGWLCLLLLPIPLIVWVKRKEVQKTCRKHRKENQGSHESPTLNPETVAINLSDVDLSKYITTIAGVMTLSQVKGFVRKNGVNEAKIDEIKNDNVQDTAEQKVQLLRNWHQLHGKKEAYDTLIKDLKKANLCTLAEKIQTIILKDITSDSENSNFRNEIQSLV

apoptotic nuclei (DAPI) in MCF7-Fas cells transfected with pMT2 alone, treated 9 h with CH-11 (500 ng/ml) plus cycloheximide: 62%
Substance: CH-11 agonist mAb to Fas (Panvera, Madison, WI) (antibody)
